B1: SLC19A2 (parent)
chain: FHHIPSTCQRVNGIKVQNGGIVTD

The source of these data is the supplement of paper PMC10567573.
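Also: lentivirally expressed fusions sorted by FACS into six bins by GFP to DsRed ratio, PSI derived from sequencing read proportions per bin multiplied by bin number.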

Variants of B1 are the subject of the series. As to the kind of experiment: protein stability index of a GFP-peptide fusion (GPS, HEK-293T) (PSI 1-6); higher = more stable. The settings on record: c terminus: a fixed tail appended.
Take FHHIPSTCQRVNGYKVQNGGIVTD: the protein stability index was 1.47.

For FHHIPSTCQRVNGRKVQNGGIVTD, the protein stability index worked out at 2.18.

In the case of FHHIPSTCQRVNGAKVQNGGIVTD, the protein stability index was 2.2.

Turning to FHHIPSTCQRVNGCKVQNGGIVTD, the protein stability index was found to be 1.72.

With FHHIPSTCQRVNGLKVQNGGIVTD, the protein stability index was 2.

For the variant FHHIPSTCQRVNGGKVQNGGIVTD, the protein stability index is 2.6.

Regarding FHHIPSTCQRVNGNKVQNGGIVTD, the protein stability index is 2.07.

Consider FHHIPSTCQRVNGHKVQNGGIVTD, for which the protein stability index is 2.31.

With FHHIPSTCQRVNGEKVQNGGIVTD, the protein stability index is 2.69.

FHHIPSTCQRVNGDKVQNGGIVTD: the protein stability index turned out to be 1.88.

On to FHHIPSTCQRVNGPKVQNGGIVTD, for which the protein stability index came to 2.19.

With FHHIPSTCQRVNGWKVQNGGIVTD, the protein stability index worked out at 2.7.

Consider FHHIPSTCQRVNGSKVQNGGIVTD, for which the protein stability index was determined as 2.62.

In the case of FHHIPSTCQRVNGQKVQNGGIVTD, the protein stability index stood at 2.14.

On to FHHIPSTCQRVNGKKVQNGGIVTD, for which the protein stability index amounted to 2.19.

FHHIPSTCQRVNGVKVQNGGIVTD: the protein stability index came out at 1.69.

As to FHHIPSTCQRVNGFKVQNGGIVTD, the protein stability index was determined as 2.32.

On to FHHIPSTCSRVNGIKVQNGGIVTD, for which the protein stability index came out at 1.67.

Consider FHHIPSTCTRVNGIKVQNGGIVTD, for which the protein stability index stood at 1.84.

In the case of FHHIPSTCVRVNGIKVQNGGIVTD, the protein stability index was determined as 2.04.

With FHHIPSTCQRVNGIKVQNGAIVTD, the protein stability index amounted to 1.59.

On to FHHIPSTCQRVNGIKVQIGGIVTD, for which the protein stability index was determined as 2.94.

On to FHHIPSTCQRVNGIKVQPGGIVTD, for which the protein stability index is 2.08.

Regarding FHHIPSTCQRVNGIKVQGGGIVTD, the protein stability index is 3.96.

With FHHIPSTCQRVNGIKVQKGGIVTD, the protein stability index was 1.68.

FHHIPSTCQRVNGIKVQRGGIVTD: the protein stability index is 2.14.

Consider FHHIPSTCQRVNGIKVQCGGIVTD, for which the protein stability index was 1.52.

Consider FHHIPSTCQRVNGIKVQTGGIVTD, for which the protein stability index was found to be 1.65.

FHHIPSTCQRVNGIKVQEGGIVTD: the protein stability index came to 2.01.

As for FHHIPSTCQRVNGIKVQMGGIVTD, the protein stability index came out at 1.98.

As to FHHIPSTCQRVNGIKVQDGGIVTD, the protein stability index worked out at 1.81.

Turning to FHHIPSTCQRVNGIKVQSGGIVTD, the protein stability index worked out at 1.92.

For the variant FHHIPSTCQRVNGIKVQYGGIVTD, the protein stability index was determined as 1.63.

Regarding FHHIPSTCQRVNGIKVQFGGIVTD, the protein stability index was found to be 2.04.

Consider FHHIPSTCQRVNGIKVQQGGIVTD, for which the protein stability index was 1.48.

Take FHHIPSTCQRVNGIKVQAGGIVTD: the protein stability index was determined as 1.77.

Consider FHHIPSTCQRVNGIKVQLGGIVTD, for which the protein stability index stood at 1.28.

On to FHHIPSTCQRVNGIKPQNGGIVTD, for which the protein stability index turned out to be 2.14.

Take FHHIPSTCQRVNGIKEQNGGIVTD: the protein stability index amounted to 1.49.

In the case of FHHIPSTCQRVNGIKRQNGGIVTD, the protein stability index stood at 1.93.

For FHHIPSTCQRVNGIKWQNGGIVTD, the protein stability index was 2.14.

FHHIPSTCQRVNGIKNQNGGIVTD: the protein stability index stood at 1.96.

With FHHIPSTCQRVNGIKFQNGGIVTD, the protein stability index was 1.6.

In the case of FHHIPSTCQRVNGIKMQNGGIVTD, the protein stability index came to 2.44.

In the case of FHHIPSTCQRVNGIKKQNGGIVTD, the protein stability index amounted to 2.02.

In the case of FHHIPSTCQRVNGIKHQNGGIVTD, the protein stability index was 2.15.

Turning to FHHIPSTCQRVNGIKAQNGGIVTD, the protein stability index amounted to 2.13.

As to FHHIPSTCQRVNGIKIQNGGIVTD, the protein stability index is 1.51.

In the case of FHHIPSTCQRVNGIKLQNGGIVTD, the protein stability index was found to be 1.79.

FHHIPSTCQRVNGIKSQNGGIVTD: the protein stability index came to 2.26.

On to FHHIPSTCQRVNGIKCQNGGIVTD, for which the protein stability index amounted to 2.2.

Consider FHHIPSTCQRVNGIKYQNGGIVTD, for which the protein stability index worked out at 1.95.

FHHIPSTCQRVNGIKTQNGGIVTD: the protein stability index turned out to be 1.89.

Take FHHIPSTCQRVNGIKGQNGGIVTD: the protein stability index was 2.13.

On to FHHIPSTCQRVNGIKDQNGGIVTD, for which the protein stability index was 2.31.

On to FHHIPSTCQRVNGIKQQNGGIVTD, for which the protein stability index worked out at 1.56.

Consider FHHIPSTCQRVNGIKVQNNGIVTD, for which the protein stability index came to 2.37.

On to FHHIPSTCQRVNGIKVQNQGIVTD, for which the protein stability index amounted to 2.16.

For the variant FHHIPSTCQRVNGIKVQNFGIVTD, the protein stability index was determined as 2.25.

Turning to FHHIPSTCQRVNGIKVQNTGIVTD, the protein stability index was found to be 2.78.

Turning to FHHIPSTCQRVNGIKVQNYGIVTD, the protein stability index turned out to be 1.74.

For FHHIPSTCQRVNGIKVQNIGIVTD, the protein stability index worked out at 3.46.

With FHHIPSTCQRVNGIKVQNWGIVTD, the protein stability index was found to be 1.62.

Consider FHHIPSTCQRVNGIKVQNKGIVTD, for which the protein stability index is 1.94.

For the variant FHHIPSTCQRVNGIKVQNPGIVTD, the protein stability index came to 2.04.

In the case of FHHIPSTCQRVNGIKVQNLGIVTD, the protein stability index was 1.72.

In the case of FHHIPSTCQRVNGIKVQNEGIVTD, the protein stability index stood at 2.81.

FHHIPSTCQRVNGIKVQNSGIVTD: the protein stability index is 1.51.

For the variant FHHIPSTCQRVNGIKVQNMGIVTD, the protein stability index worked out at 1.27.

For the variant FHHIPSTCQRVNGIKVQNHGIVTD, the protein stability index was found to be 1.59.

Take FHHIPSTCQRVNGIKVQNDGIVTD: the protein stability index was 2.36.

With FHHIPSTCQRVNGIKVQNVGIVTD, the protein stability index was determined as 2.32.

Consider FHHIPSTCQRVNGIKVQNCGIVTD, for which the protein stability index came out at 2.34.

With FHHIPSTCQRVNGIKVQNRGIVTD, the protein stability index stood at 1.65.

For the variant FHHIPSTCQRVNGIKVQNAGIVTD, the protein stability index was 1.65.

Consider FHHIPSTCQRVNGIKVKNGGIVTD, for which the protein stability index was 2.66.

Regarding FHHIPSTCQRVNGIKVLNGGIVTD, the protein stability index was 1.34.

For FHHIPSTCQRVNGIKVRNGGIVTD, the protein stability index is 2.81.

On to FHHIPSTCQRVNGIKVNNGGIVTD, for which the protein stability index turned out to be 2.17.

FHHIPSTCQRVNGIKVENGGIVTD: the protein stability index was found to be 2.28.

FHHIPSTCQRVNGIKVHNGGIVTD: the protein stability index stood at 2.08.

As to FHHIPSTCQRVNGIKVPNGGIVTD, the protein stability index came out at 2.35.

Take FHHIPSTCQRVNGIKVDNGGIVTD: the protein stability index stood at 2.05.

As to FHHIPSTCQRVNGIKVYNGGIVTD, the protein stability index was 2.31.

As to FHHIPSTCQRVNGIKVWNGGIVTD, the protein stability index amounted to 1.62.

With FHHIPSTCQRVNGIKVFNGGIVTD, the protein stability index was found to be 1.41.

Turning to FHHIPSTCQRVNGIKVMNGGIVTD, the protein stability index was determined as 1.09.

As for FHHIPSTCQRVNGIKVANGGIVTD, the protein stability index was 1.89.

As for FHHIPSTCQRVNGIKVSNGGIVTD, the protein stability index came to 2.72.

For FHHIPSTCQRVNGIKVINGGIVTD, the protein stability index was found to be 1.6.

FHHIPSTCQRVNGIKVCNGGIVTD: the protein stability index came out at 2.37.

With FHHIPSTCQRVNGIKVGNGGIVTD, the protein stability index was found to be 1.87.

For the variant FHHIPSTCQRVNGIKVTNGGIVTD, the protein stability index came out at 1.67.

For the variant FHHIPSTCQRVNGIKVVNGGIVTD, the protein stability index amounted to 2.1.
